Experimental data as given in US20050013808A1, “Nitroreductase enzymes” (priority 2001, published 2005).
Numbering of substitutions follows the chain as printed. Names and notes keep the numbering of the source.

Key:
[1] = system: UT5600 cells (NTR−) lysogens; assay: Replica-plate screening of mutant NTR-expressing lysogens on increasing CB1954 (growth score); format: cell-based, E. coli; set-up: key to Score: 0: Good growth on all concentrations of CB 1954 = vector; Good growth on 100 and 200, faint on 300, ring of growth on 400 μM; Good growth on 100 and 200, ring growth on 300, none or very faint on 400 μM; Good growth on 100, faint to good on 200, none or very faint on 300 and 400 μM; 4: Good growth on 100 μM, none to ring growth on 200 μM = wild type; Good growth on 50 μM, ring on 100 μM, none on 200, 300 or 400 μM; 6: Faint growth on 50 μM, ring on 100 μM; 7: Good growth on 50 μM, none on 100 μM; 8: Ring growth on 50 μM, none on 100 μM; 9: None or very faint growth on 50 μM, none on 100 μM; 10: None or ring growth on 35 μM; conditions: for Score: growth of lysogens on agar with kanamycin, IPTG and 0-400 μM CB1954, wild type = 4, higher = more sensitive
Method: The ligation mix was packaged (Stratagene) into lambda bacteriophage particles that were used to infect UT5600 cells (NTR ^−). As a control wild type NTR was also cloned into this vector (JG16C2). Kanamycin resistant lysogens were selected on agar plates ([…] kanamycin) then individually grown overnight in a well of a 96-well plate in LB+Kanamycin. The clones were replica plated on to a series of plates containing Tris-buffered (50 mM, pH 7.5) LB agar with kanamycin, IPTG (0.1 mM) and CB1954 at a concentration of 0, 25, 35, 50, 100, 200, 300 or 400 μM (see FIG. 3). […]

[2] = system: UT5600 cells (NTR−) lysogens; assay: Survival curve (colony count) IC50 of CB1954 in NTR-expressing lysogens; format: cell-based, E. coli; conditions: concentration of CB1954 giving 50% reduction in colony number after 36h growth; lysogen expressing the named NTR
Method: To quantify the improvement in NTR activity in the clones in a less subjective way, a few clones were selected for further study by determining their survival curves. The lysogens were grown overnight in LB +kanamycin and diluted to approximately 1 cell per μl based on the OD. In duplicate, 100 μl diluted cells were plated into Tris-buffered LB plates containing kanamycin, IPTG and 0-400 μM CB1954. After 36h growth the number of colonies on each plate were counted and expressed as a percentage of the number present on the plates with no CB1954. Survival curves showing % survival versus concentration of CB 1954 were plotted (see examples in FIG. 7) and the IC50 determined as the concentration of CB 1954 which kills gives a 50% reduction in colony number (Table 3 and FIG. 8). A few clones containing mutations resulting in an enhanced sensitivity to CB 1954 were selected for further study.

HeLa cells = assay: CB1954 sensitisation of HeLa cells after adenoviral NTR expression (MTS viability); format: cell-based, human; conditions: range of MOIs, 0-50 μM CB1954, 5 hour exposure, MTS assay
Method: Sensitisation of HeLa cells to CB1954 was assayed using the following protocol. Cells were infected with NTR-expressing viruses in suspension (2 hours) at a range of MOIs prior to plating into microtitre plates (10^4 cells/well). After a 24 hour expression period, CB1954 was applied at a range of concentrations (0-50 μM) and after a 5 hour exposure to the prodrug, cell viability was assessed using the Promega MTS cell substrate killing assay (2-3 hour incubation before plate reading at OD450 nm). […] Adenovirus titreing by plaque formation on helper cells is however an error-prone process. To correct for this, experiments were performed with multiple independent titred preparations of each virus.
The titres of these mixes were assumed to be the means of the respective experimentally determined titres. For western blot analysis of NTR expression for normalisation purposes, whole cell extracts were resolved by SDS-PAGE on an 11% separation gel and blotted onto a nitrocellulose membrane. NTR was detected using a sheep anti-NTR serum (1:1000 diluted), donkey anti-sheep IgG labelled with HRP (horseradish peroxidase) and SuperSignal West Pico Chemiluminescence substrate (Pierce), analysed with an Alpha Innotech Imager Model #2.3.1. The relative loading of each well was determined by Coomassie blue staining of the gel post transfer.

[3] = Steady state kinetics of purified NTR, variable substrate NADH; format: biochemical; conditions: fixed substrate nitrofurazone; for Km: 10 mM Tris HCl pH 7.0, 25° C., 4% DMSO
Method: (§1) Wild type NTR and selected mutants were purified as described by Lovering et al., 2001. Steady state kinetic studies were carried out by monitoring the disappearance of nitrofurazone ( ? =12,960, Zenno, et al., 1994) and nitrofurantoin ( ? =12,020, McOsker, et al., 1992) at 420 nm or the disappearance of reduced benzoquinone ( ? =18,5000), 2-nitrofuran ( ? =10,250, McOsker, et al., 1992), 2-nitrobenzamide ( ? =9,750, McOsker, et al., 1992) and 4 nitrobenzamide ( ? =9,720, McOsker, et al., 1992) at 300 nm. The formation of the 4 hydroxylamine product of CB1954 reduction was monitored at 420 nm ( ? =7900, Richard Knox, personal communication).
(§2) All reactions were performed in quartz cuvettes with either a 0.1-, 0.5-, or 1-cm pathlength. In all cases the reaction was initiated by the addition of a small amount of cold enzyme solution to the reaction mix. Assays were performed in 10 mM Tris HCL pH 7.0. The temperature of each reaction was maintained at 25° C. by means of a circulating water bath. All substrates examined were dissolved in DMSO, with the final concentration of organic solvent not exceeding 4% (v/v), concentrations>5% (v/v) give definable enzyme inhibition. In all assay the final DMSO concentration was at 4%. All steady state data were collected in an aerobic environment. Kinetic data were collected at concentration ranges extending from 0.1 of Km to the maximum possible concentration permitted by substrate solubility or optical absorbance. In all cases maximum substrate concentrations exceeded 5×Km. All data was analysed using the commercial package Sigma Plot™ and fit with non-linear regression to a rectangular hyperbola of the form: y=ax/b+x

[4] = Steady state kinetics of purified NTR, variable substrate CB1954; format: biochemical; conditions: for kinetic parameters compared with wild type: second substrate CB1954, nucleotide NADH; for Km / kcat: variable substrate CB1954, fixed substrate NADH
Method: as §1, §2

[5] = Steady state kinetics of purified NTR, variable substrate nitrofurazone; format: biochemical; conditions: fixed substrate NADH
Method: as §1, §2

[6] = nitrofurazone and nitrofurantoin as substrates; cited from earlier work

B1: F124N (protein)
chain: MDIISVALKRHSTKAFDASKKLTPEQAEQIKTLLQYSPSSTNSQPWHFIVASTEEGKARVAKSAAGNYVFNERKMLDASHVVVFCAKTAMDDVWLKLVVDQEDADGRFATPEAKAANDKGRKFNADMHRKDLHDDAEWMAKQVYLNVGNFLLGVAALGLDAVPIEGFDAAILDAEFGLKEKGYTSLVVVPVGHHSVEDFNATLPKSRLPQNITLTEV
With B1 the “nitroreductase activity with CB1954 compared with wild-type” value [1] was “substantially greater activity with CB 1954 than the wild-type”, the Score [1] was 8-10 and the IC50 [2] was 21 µM. For the same molecule, the “sensitisation of HeLa cells to CB1954 killing compared with WT NTR” value (HeLa cells) was “more extensive cell killing than that caused by expression of the WT enzyme”.

B2: Y68G: NTR mutant, tyrosine 68 to glycine (protein)
chain: B1 chain with Y68G, N124F
Molecule B2 has a Score [1] of 7, an IC50 [2] of 43 µM and a kcat [3] of 54.77 ± 0.55 s⁻¹. For the same molecule, the Km [3] was 22 ± 1 µM, the “kinetic parameters compared with wild type” value [4] was “large improvement in catalytic activity vs. second substrate but not in kcat/Km” and the Km [4] was 1840 ± 44 µM. For the same molecule, the kcat [4] was 11.5 ± 0.9 s⁻¹, the Km [5] was 699 ± 24 µM and the kcat [5] was 59.02 ± 0.4 s⁻¹.

B3: Wild type: wild-type E. coli nitroreductase (NTR) encoded by the NfsB gene, SEQ ID NO:1 (protein, listed as Escherichia coli)
chain: B1 chain with N124F
B3 gave a Score [1] of 4, an IC50 [2] of 118 µM and a kcat [3] of 11 ± 0.383 s⁻¹. For the same molecule, the Km [3] was 7 ± 1 µM, the Km [4] was 852 ± 8 µM and the kcat [4] was 5.7 ± 0.417 s⁻¹. It also gave a Km [5] of 157 ± 4 µM and a kcat [5] of 11.4 ± 0.05 s⁻¹.

B4: N71S F124K: NTR double mutant, asparagine 71 to serine combined with phenylalanine 124 to lysine (protein)
chain: B1 chain with N71S, N124K
For B4, the Score [1] was 9, the IC50 [2] was 16 µM and the “sensitisation of HeLa cells to CB1954 killing compared with WT NTR” value (HeLa cells) was “more extensive cell killing than that caused by expression of the WT enzyme”.

B5: F124H: NTR mutant, phenylalanine 124 to histidine (protein)
chain: B1 chain with N124H
With B5 the “nitroreductase activity with CB1954 compared with wild-type” value [1] was “substantially greater activity with CB 1954 than the wild-type”, the Score [1] was 7-9 and the IC50 [2] was 41 µM. The kcat [3] was 10.3 ± 0.217 s⁻¹, the Km [3] was 3 ± 0.4 µM and the “kinetic parameters compared with wild type” value [4] was “significant improvement in kcat/Km for both nucleotide and second substrate”. The Km [4] was 526 ± 10 µM, the kcat [4] was 5.93 ± 0.583 s⁻¹ and the Km [5] was 104 ± 10 µM. For the same molecule, the kcat [5] was 10.7 ± 0.267 s⁻¹ and the “nitroreductase activity compared with wild-type” value [6] was “approximately double the wild-type activity”.
